Measured values: patent US20260275311, “CRISPR NUCLEASE POLYPEPTIDES AND GENE EDITING SYSTEMS COMPRISING SUCH” (ARBOR BIOTECHNOLOGIES, INC., published 2026)
Substitutions are numbered along the chain they refer to.

Columns and labels:
Experiment in all cases: cell_activity
Details in all cases: PAM TTAAA; HEK293T
[1] = tested on: T1, Nuclease M P481R P481R
T1 sequence: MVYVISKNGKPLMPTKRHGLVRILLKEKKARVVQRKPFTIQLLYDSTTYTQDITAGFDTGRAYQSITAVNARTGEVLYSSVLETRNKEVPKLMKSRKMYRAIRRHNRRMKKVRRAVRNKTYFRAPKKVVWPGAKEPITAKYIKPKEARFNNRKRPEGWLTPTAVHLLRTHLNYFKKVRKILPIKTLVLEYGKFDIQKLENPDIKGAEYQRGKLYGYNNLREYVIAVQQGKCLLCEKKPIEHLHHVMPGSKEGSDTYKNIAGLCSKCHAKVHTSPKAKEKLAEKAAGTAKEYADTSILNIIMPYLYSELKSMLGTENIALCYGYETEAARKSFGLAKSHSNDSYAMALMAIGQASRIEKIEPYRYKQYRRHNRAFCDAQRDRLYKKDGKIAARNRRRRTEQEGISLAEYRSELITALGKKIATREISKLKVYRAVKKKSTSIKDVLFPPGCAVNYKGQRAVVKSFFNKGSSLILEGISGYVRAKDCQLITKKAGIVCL

[2] = tested on: T2, Nuclease M S95R S95R
T2 sequence: T1 sequence with S95R, R481P

[3] = tested on: T3, Nuclease M A373R A373R
T3 sequence: T1 sequence with A373R, R481P

[4] = tested on: T4, Nuclease M N371R N371R
T4 sequence: T1 sequence with N371R, R481P

[5] = tested on: T5, Nuclease M E83R E83R
T5 sequence: T1 sequence with E83R, R481P

## GAGCCUGGUCCAUGGAGAGUGUCAACUACCCCCGUCUAAAGACGGAGGCAUGAGGUUUCGUAACCAAGUGUUGUACCUGCGGGUACAGUAGUUGAACAGGCGGCGAUGCGGCUGGGCACUCCAGGAUGCCACUCCCAGUCCCGGACACUGCCGACGAGCCGCAUCAAGCCGGGGGAGACCAACCGGCUAACGAUAGCCGAGCAAUUACCUAAAAAGAGGUGCAAAGGAAAUGGUAU / GAGCCTGGTCCATGGAGAGT / ACTCTCCATGGACCAGGCTC [Nuclease M VEGFA-T5 guide ; Nuclease M VEGFA-T5 target]
[1]
  binding signal (fold vs Nuclease M): 1.6
[2]
  binding signal (fold vs Nuclease M): 2.05
[3]
  binding signal (fold vs Nuclease M): 1.53
[4]
  binding signal (fold vs Nuclease M): 1.65
[5]
  binding signal (fold vs Nuclease M): 1.71
